Measurements reported in patent publication US20140213513A1 (Sanofi, priority 2012, published 2014).
*1 amine or outer side, *2 acyl side, *3 side chain or, on linkers, in order; H or OH if unused. Where no end group is shown, it is not given here. Side-chain parts run from the residue outwards. [ ]: non-standard residue; d: D form. The star is where a group is joined. γGlu = O=C(O)[C@H](CCC(=O)[*:2])N[*:1]; Stearoyl = CCCCCCCCCCCCCCCCCC(=O)*; Palmitoyl = CCCCCCCCCCCCCCCC(=O)*; Aib = CC(C)(N)C(=O)O

B1: exendin-4 peptide analogue SEQ ID NO: 64 (peptide)
peptide: Y[Aib]EGTFTSDLSIQK([γGlu-Stearoyl])EERAVRLFIEWLKAGGPSSGAPPPS-NH2
modifications: N-terminus assumed
SMILES: CCCCCCCCCCCCCCCCCC(=O)N[C@@H](CCC(=O)NCCCC[C@H](NC(=O)[C@H](CCC(N)=O)NC(=O)[C@@H](NC(=O)[C@H](CO)NC(=O)[C@H](CC(C)C)NC(=O)[C@H](CC(=O)O)NC(=O)[C@H](CO)NC(=O)[C@@H](NC(=O)[C@H](Cc1ccccc1)NC(=O)[C@@H](NC(=O)CNC(=O)[C@H](CCC(=O)O)NC(=O)C(C)(C)NC(=O)[C@@H](N)Cc1ccc(O)cc1)[C@@H](C)O)[C@@H](C)O)[C@@H](C)CC)C(=O)N[C@@H](CCC(=O)O)C(=O)N[C@@H](CCC(=O)O)C(=O)N[C@@H](CCCNC(=N)N)C(=O)N[C@@H](C)C(=O)N[C@H](C(=O)N[C@@H](CCCNC(=N)N)C(=O)N[C@@H](CC(C)C)C(=O)N[C@@H](Cc1ccccc1)C(=O)N[C@H](C(=O)N[C@@H](CCC(=O)O)C(=O)N[C@@H](Cc1c[nH]c2ccccc12)C(=O)N[C@@H](CC(C)C)C(=O)N[C@@H](CCCCN)C(=O)N[C@@H](C)C(=O)NCC(=O)NCC(=O)N1CCC[C@H]1C(=O)N[C@@H](CO)C(=O)N[C@@H](CO)C(=O)NCC(=O)N[C@@H](C)C(=O)N1CCC[C@H]1C(=O)N1CCC[C@H]1C(=O)N1CCC[C@H]1C(=O)N[C@@H](CO)C(N)=O)[C@@H](C)CC)C(C)C)C(=O)O
B2: exendin-4 peptide analogue SEQ ID NO: 63 (peptide)
peptide: Y[Aib]EGTFTSDLSKQK([γGlu-Palmitoyl])DKRAAQDFIEWLKAGGPSSGAPPPS-NH2
modifications: N-terminus assumed
SMILES: CCCCCCCCCCCCCCCC(=O)N[C@@H](CCC(=O)NCCCC[C@H](NC(=O)[C@H](CCC(N)=O)NC(=O)[C@H](CCCCN)NC(=O)[C@H](CO)NC(=O)[C@H](CC(C)C)NC(=O)[C@H](CC(=O)O)NC(=O)[C@H](CO)NC(=O)[C@@H](NC(=O)[C@H](Cc1ccccc1)NC(=O)[C@@H](NC(=O)CNC(=O)[C@H](CCC(=O)O)NC(=O)C(C)(C)NC(=O)[C@@H](N)Cc1ccc(O)cc1)[C@@H](C)O)[C@@H](C)O)C(=O)N[C@@H](CC(=O)O)C(=O)N[C@@H](CCCCN)C(=O)N[C@@H](CCCNC(=N)N)C(=O)N[C@@H](C)C(=O)N[C@@H](C)C(=O)N[C@@H](CCC(N)=O)C(=O)N[C@@H](CC(=O)O)C(=O)N[C@@H](Cc1ccccc1)C(=O)N[C@H](C(=O)N[C@@H](CCC(=O)O)C(=O)N[C@@H](Cc1c[nH]c2ccccc12)C(=O)N[C@@H](CC(C)C)C(=O)N[C@@H](CCCCN)C(=O)N[C@@H](C)C(=O)NCC(=O)NCC(=O)N1CCC[C@H]1C(=O)N[C@@H](CO)C(=O)N[C@@H](CO)C(=O)NCC(=O)N[C@@H](C)C(=O)N1CCC[C@H]1C(=O)N1CCC[C@H]1C(=O)N1CCC[C@H]1C(=O)N[C@@H](CO)C(N)=O)[C@@H](C)CC)C(=O)O
B3: exendin-4 peptide analogue SEQ ID NO: 12 (peptide)
peptide: Y[Aib]QGTFTSDLSIQK([γGlu-Palmitoyl])EKAAA[Aib]EFIEWLKNTGPSSGAPPPS-NH2
modifications: N-terminus assumed
SMILES: CCCCCCCCCCCCCCCC(=O)N[C@@H](CCC(=O)NCCCC[C@H](NC(=O)[C@H](CCC(N)=O)NC(=O)[C@@H](NC(=O)[C@H](CO)NC(=O)[C@H](CC(C)C)NC(=O)[C@H](CC(=O)O)NC(=O)[C@H](CO)NC(=O)[C@@H](NC(=O)[C@H](Cc1ccccc1)NC(=O)[C@@H](NC(=O)CNC(=O)[C@H](CCC(N)=O)NC(=O)C(C)(C)NC(=O)[C@@H](N)Cc1ccc(O)cc1)[C@@H](C)O)[C@@H](C)O)[C@@H](C)CC)C(=O)N[C@@H](CCC(=O)O)C(=O)N[C@@H](CCCCN)C(=O)N[C@@H](C)C(=O)N[C@@H](C)C(=O)N[C@@H](C)C(=O)NC(C)(C)C(=O)N[C@@H](CCC(=O)O)C(=O)N[C@@H](Cc1ccccc1)C(=O)N[C@H](C(=O)N[C@@H](CCC(=O)O)C(=O)N[C@@H](Cc1c[nH]c2ccccc12)C(=O)N[C@@H](CC(C)C)C(=O)N[C@@H](CCCCN)C(=O)N[C@@H](CC(N)=O)C(=O)N[C@H](C(=O)NCC(=O)N1CCC[C@H]1C(=O)N[C@@H](CO)C(=O)N[C@@H](CO)C(=O)NCC(=O)N[C@@H](C)C(=O)N1CCC[C@H]1C(=O)N1CCC[C@H]1C(=O)N1CCC[C@H]1C(=O)N[C@@H](CO)C(N)=O)[C@@H](C)O)[C@@H](C)CC)C(=O)O
B4: exendin-4 peptide analogue SEQ ID NO: 62 (peptide)
peptide: Y[Aib]EGTFTSDLSIQK([γGlu-Stearoyl])EEEAVKLFIEWLKAGGPSSGAPPPS-NH2
modifications: N-terminus assumed
SMILES: CCCCCCCCCCCCCCCCCC(=O)N[C@@H](CCC(=O)NCCCC[C@H](NC(=O)[C@H](CCC(N)=O)NC(=O)[C@@H](NC(=O)[C@H](CO)NC(=O)[C@H](CC(C)C)NC(=O)[C@H](CC(=O)O)NC(=O)[C@H](CO)NC(=O)[C@@H](NC(=O)[C@H](Cc1ccccc1)NC(=O)[C@@H](NC(=O)CNC(=O)[C@H](CCC(=O)O)NC(=O)C(C)(C)NC(=O)[C@@H](N)Cc1ccc(O)cc1)[C@@H](C)O)[C@@H](C)O)[C@@H](C)CC)C(=O)N[C@@H](CCC(=O)O)C(=O)N[C@@H](CCC(=O)O)C(=O)N[C@@H](CCC(=O)O)C(=O)N[C@@H](C)C(=O)N[C@H](C(=O)N[C@@H](CCCCN)C(=O)N[C@@H](CC(C)C)C(=O)N[C@@H](Cc1ccccc1)C(=O)N[C@H](C(=O)N[C@@H](CCC(=O)O)C(=O)N[C@@H](Cc1c[nH]c2ccccc12)C(=O)N[C@@H](CC(C)C)C(=O)N[C@@H](CCCCN)C(=O)N[C@@H](C)C(=O)NCC(=O)NCC(=O)N1CCC[C@H]1C(=O)N[C@@H](CO)C(=O)N[C@@H](CO)C(=O)NCC(=O)N[C@@H](C)C(=O)N1CCC[C@H]1C(=O)N1CCC[C@H]1C(=O)N1CCC[C@H]1C(=O)N[C@@H](CO)C(N)=O)[C@@H](C)CC)C(C)C)C(=O)O
B5: exendin-4 peptide analogue SEQ ID NO: 66 (peptide)
peptide: Y[Aib]QGTFTSDLSKQK([γGlu-Palmitoyl])DSRAAQDFIEWLKAGGPSSGAPPPS-NH2
modifications: N-terminus assumed
SMILES: CCCCCCCCCCCCCCCC(=O)N[C@@H](CCC(=O)NCCCC[C@H](NC(=O)[C@H](CCC(N)=O)NC(=O)[C@H](CCCCN)NC(=O)[C@H](CO)NC(=O)[C@H](CC(C)C)NC(=O)[C@H](CC(=O)O)NC(=O)[C@H](CO)NC(=O)[C@@H](NC(=O)[C@H](Cc1ccccc1)NC(=O)[C@@H](NC(=O)CNC(=O)[C@H](CCC(N)=O)NC(=O)C(C)(C)NC(=O)[C@@H](N)Cc1ccc(O)cc1)[C@@H](C)O)[C@@H](C)O)C(=O)N[C@@H](CC(=O)O)C(=O)N[C@@H](CO)C(=O)N[C@@H](CCCNC(=N)N)C(=O)N[C@@H](C)C(=O)N[C@@H](C)C(=O)N[C@@H](CCC(N)=O)C(=O)N[C@@H](CC(=O)O)C(=O)N[C@@H](Cc1ccccc1)C(=O)N[C@H](C(=O)N[C@@H](CCC(=O)O)C(=O)N[C@@H](Cc1c[nH]c2ccccc12)C(=O)N[C@@H](CC(C)C)C(=O)N[C@@H](CCCCN)C(=O)N[C@@H](C)C(=O)NCC(=O)NCC(=O)N1CCC[C@H]1C(=O)N[C@@H](CO)C(=O)N[C@@H](CO)C(=O)NCC(=O)N[C@@H](C)C(=O)N1CCC[C@H]1C(=O)N1CCC[C@H]1C(=O)N1CCC[C@H]1C(=O)N[C@@H](CO)C(N)=O)[C@@H](C)CC)C(=O)O

What follows are binders tested against T1, human GIP receptor (human, UniProt P48546 22-466) (assay: cell-based or functional assay).
T1 sequence (looked up): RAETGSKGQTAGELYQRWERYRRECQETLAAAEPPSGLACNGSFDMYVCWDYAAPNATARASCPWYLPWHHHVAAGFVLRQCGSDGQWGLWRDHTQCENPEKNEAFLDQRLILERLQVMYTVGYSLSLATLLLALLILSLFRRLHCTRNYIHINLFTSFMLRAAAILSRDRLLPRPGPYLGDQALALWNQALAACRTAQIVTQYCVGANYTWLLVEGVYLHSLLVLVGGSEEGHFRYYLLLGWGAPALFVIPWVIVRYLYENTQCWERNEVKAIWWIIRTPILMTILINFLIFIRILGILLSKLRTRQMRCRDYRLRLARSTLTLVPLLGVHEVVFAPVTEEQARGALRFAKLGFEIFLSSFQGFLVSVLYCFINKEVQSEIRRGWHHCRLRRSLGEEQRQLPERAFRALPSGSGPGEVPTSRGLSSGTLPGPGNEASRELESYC

Binder	EC50 hGIP R [nM]
B1	0.0096
B2	0.0119
B3	0.008
B4	0.0067
B5	0.0826

The binders below were run against human glucagon receptor (human, UniProt P47871 26-477) (assay: cell-based or functional assay).
Sequence of human glucagon receptor (P47871 26-477): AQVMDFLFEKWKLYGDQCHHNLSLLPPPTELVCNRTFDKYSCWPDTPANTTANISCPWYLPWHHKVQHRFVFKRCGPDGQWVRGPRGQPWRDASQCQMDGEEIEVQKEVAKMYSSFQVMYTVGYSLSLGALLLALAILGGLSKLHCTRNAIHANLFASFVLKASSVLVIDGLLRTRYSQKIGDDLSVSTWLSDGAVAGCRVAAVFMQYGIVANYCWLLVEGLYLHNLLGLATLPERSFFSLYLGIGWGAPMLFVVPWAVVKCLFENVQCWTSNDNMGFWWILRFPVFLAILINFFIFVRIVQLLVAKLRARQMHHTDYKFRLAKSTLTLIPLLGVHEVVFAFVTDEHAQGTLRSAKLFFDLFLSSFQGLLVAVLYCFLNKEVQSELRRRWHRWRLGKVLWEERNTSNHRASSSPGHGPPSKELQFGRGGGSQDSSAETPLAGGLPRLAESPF

Binder	EC50 hGLUC R [nM]
B1	75.1
B2	1.67
B3	0.139
B4	> 1000
B5	0.0052

What follows are binders tested against human GLP-1 receptor (human, UniProt P43220 24-463) (assay: cell-based or functional assay).

Binder	EC50 hGLP-1 R [nM]
B1	0.0102
B2	0.006
B3	0.0055
B4	0.0076
B5	0.0036
